Measured values reported in patent publication US20230380451A1, “MEANS AND METHODS TO DETOXIFY MYCOTOXINS” (priority 2020, published 2023).

Assays:
[1] = Storage stability at different pH values, residual DON transformation activity; assay type: biochemical; conditions: storage at 30° C.
Experimental: (§1) To determine the transformation of DON to epi-THS by Akr I-III, described herein, the following assay was performed. An assay buffer was prepared containing 40 ppm DON, 1 mM NADPH in Teorell Stenhagen (TS) buffer, pH 6.0 (Östling and Virtama, Acta Physiologica Scandinavica, 1946, 11:4, 289-293). Tubes containing the assay buffer were transferred in a heating block at 30° C. The reaction was started by addition of Akr I-III to a final concentration of 200 nM in a final reaction volume of 200 μL. Samples were taken before reaction start, and 2, 5, 10, 15 and 20 min after reaction start. DON transformation reactions in these samples were stopped by mixing with absolute methanol at a 1:2 ratio, followed by a 1:100 dilution with 40% methanol. The concentrations of DON and epi-THS in the samples were determined with liquid chromatography-mass spectrometry (LC-MS) on a Sciex 5500 triple quadrupole mass spectrometer coupled to Agilent 1290 series UHPLC system, using the following MS parameters: Acquisition duration: 4 min; Scan Type: MRM (MRM); Polarity: Negative; Ion Source: Turbo Spray.
The storage stability of Akr I-III at different pH values was tested by incubating 1 μM enzyme in TS buffer solutions with a pH of 3.0-10.0 for 4 h at 30° C. in standard 1.5 ml Eppendorf tubes. Every hour, a DON transformation assay was conducted as described in Example 3. The starting activity at time 0 min was set to 100% and the relative residual activities were determined throughout the incubation. For the DON transformation assays, 80 μl of the storage solution were added to an assay reaction with a final volume of 400 μl, which corresponds to a 1:5 dilution of the storage solution. Akr I retained more than 93% activity during 4 hours at 30° C. from pH 4.0-10.0. Akr II retained 30% to 93% activity during 4 hours at 30° C. from pH […] retained 27% to 85% activity during 4 hours at 30° C. from pH 4.0-9.0. Akr I-III retained more than 40% of their activity for 4 hours at 30° C. from pH 4.0 to pH 8.0.

[2] = Storage stability in storage buffer at different temperatures, residual DON transformation activity; assay type: biochemical; conditions: for Relative DON transformation activity: storage buffer
Experimental: as §1
The storage stability of Akr I-III was tested by incubation of 5 μM enzyme solutions in storage buffer (50 mM Tris pH 9.0, 0.5M NaCl, 50% Glycerol), for 60 min in a thermocycler (Mastercycler, Eppendorf) set to gradient mode from 30° C. to 50° C. Throughout the incubation, samples were removed and placed on ice until DON transformation assays were performed as described in Example 3 to determine enzyme activities. The starting activity at time 0 min was set to 100% and the relative residual activities were determined throughout the incubation. Akr I retained more than 33% activity during 60 min in pH 6 at temperatures from 29.9° C. to 46.0° C. Akr III retained 15% to 90% activity during 20 min in pH 6 at temperatures from 29.9° C. to 40.7° C.

B1: Akr III: artificial amino acid sequence, variant of a wild type aldo-keto reductase (protein)
chain: MRTTEIAQGLKVSNLCIGAGPLGGMPTAFGYDVSEERGIATVQAVFDSPINFMDTSSEYGGSEARIGKVIREGRMPKGFVISSKADAEGEGVGRRGDFSAKQVRASFELSLERLGLTHLDVYFLHDPEKFPFEQVMARGGAMEELLRLKDEGLVGLVGVAGGDVLEMARYVDTGSLDILLNYGRYTILDRSADSLITKVSDAGMAFLNAGPYASGLLAAPRGGSAWYQYAPPDATALQAVDQLHELCESFDVSLRSVALQFSMRDPRITSTVVGLSRPERVRALLDDEAAEIPAELWEQLPAPLNGDIVLPR
modifications: ArkIII
With B1 the “Relative DON-transformation activity” value ([1]; pH 3.0, 0 h (starting activity set to 100%)) was 100.0%, the “Relative DON-transformation activity” value ([1]; pH 3.0, 1 h) was 13.5% and the “Relative DON-transformation activity” value ([1]; pH 3.0, 2 h) was 19.3%. The “Relative DON-transformation activity” value ([1]; pH 3.0, 3 h) was 0.0%, the “Relative DON-transformation activity” value ([1]; pH 3.0, 4 h) was 0.0% and the “Relative DON-transformation activity” value ([1]; pH 4.0, 0 h (starting activity set to 100%)) was 100.0%. The “Relative DON-transformation activity” value ([1]; pH 4.0, 1 h) was 95.1%, the “Relative DON-transformation activity” value ([1]; pH 4.0, 2 h) was 84.4% and the “Relative DON-transformation activity” value ([1]; pH 4.0, 3 h) was 74.8%. The “Relative DON-transformation activity” value ([1]; pH 4.0, 4 h) was 57.7%, the “Relative DON-transformation activity” value ([1]; pH 5.0, 0 h (starting activity set to 100%)) was 100.0% and the “Relative DON-transformation activity” value ([1]; pH 5.0, 1 h) was 97.7%. For the same molecule, the “Relative DON-transformation activity” value ([1]; pH 5.0, 2 h) was 96.3%, the “Relative DON-transformation activity” value ([1]; pH 5.0, 3 h) was 90.7% and the “Relative DON-transformation activity” value ([1]; pH 5.0, 4 h) was 85.2%. For the same molecule, the “Relative DON-transformation activity” value ([1]; pH 6.0, 0 h (starting activity set to 100%)) was 100.0%, the “Relative DON-transformation activity” value ([1]; pH 6.0, 1 h) was 97.8% and the “Relative DON-transformation activity” value ([1]; pH 6.0, 2 h) was 94.9%. The “Relative DON-transformation activity” value ([1]; pH 6.0, 3 h) was 93.1%, the “Relative DON-transformation activity” value ([1]; pH 6.0, 4 h) was 78.9% and the “Relative DON-transformation activity” value ([1]; pH 7.0.0, 0 h (starting activity set to 100%)) was 100.0%. The “Relative DON-transformation activity” value ([1]; pH 7.0.0, 1 h) was 93.0%, the “Relative DON-transformation activity” value ([1]; pH 7.0.0, 2 h) was 91.3% and the “Relative DON-transformation activity” value ([1]; pH 7.0.0, 3 h) was 85.1%. The “Relative DON-transformation activity” value ([1]; pH 7.0.0, 4 h) was 74.0%, the “Relative DON-transformation activity” value ([1]; pH 8.0, 0 h (starting activity set to 100%)) was 100.0% and the “Relative DON-transformation activity” value ([1]; pH 8.0, 1 h) was 94.2%. For the same molecule, the “Relative DON-transformation activity” value ([1]; pH 8.0, 2 h) was 77.9%, the “Relative DON-transformation activity” value ([1]; pH 8.0, 3 h) was 69.0% and the “Relative DON-transformation activity” value ([1]; pH 8.0, 4 h) was 57.6%. For the same molecule, the “Relative DON-transformation activity” value ([1]; pH 9.0.0, 0 h (starting activity set to 100%)) was 100.0%, the “Relative DON-transformation activity” value ([1]; pH 9.0.0, 1 h) was 76.3% and the “Relative DON-transformation activity” value ([1]; pH 9.0.0, 2 h) was 61.3%. For the same molecule, the “Relative DON-transformation activity” value ([1]; pH 9.0.0, 3 h) was 54.1%, the “Relative DON-transformation activity” value ([1]; pH 9.0.0, 4 h) was 27.4% and the “Relative DON-transformation activity” value ([1]; pH 10.0, 0 h (starting activity set to 100%)) was 100.0%. For the same molecule, the “Relative DON-transformation activity” value ([1]; pH 10.0, 1 h) was 47.0%, the “Relative DON-transformation activity” value ([1]; pH 10.0, 2 h) was 27.1% and the “Relative DON-transformation activity” value ([1]; pH 10.0, 3 h) was 17.0%. For the same molecule, the “Relative DON-transformation activity” value ([1]; pH 10.0, 4 h) was 15.4%, the retained activity ([2]; during 60 min in pH 6 at temperatures from 29.9° C. to 46.0° C.) was “more than 50%” and the “Relative DON transformation activity” value ([2]; 29.9° C., 0 min (starting activity set to 100%)) was 100.00%. For the same molecule, the “Relative DON transformation activity” value ([2]; 29.9° C., 5 min) was 89.1%, the “Relative DON transformation activity” value ([2]; 29.9° C., 10 min) was 91.6% and the “Relative DON transformation activity” value ([2]; 29.9° C., 20 min) was 90.3%. For the same molecule, the “Relative DON transformation activity” value ([2]; 29.9° C., 35 min) was 93.1%, the “Relative DON transformation activity” value ([2]; 29.9° C., 50 min) was 74.0% and the “Relative DON transformation activity” value ([2]; 29.9° C., 60 min) was 72.2%. For the same molecule, the “Relative DON transformation activity” value ([2]; 35.3° C., 0 min (starting activity set to 100%)) was 100.00%, the “Relative DON transformation activity” value ([2]; 35.3° C., 5 min) was 96.00% and the “Relative DON transformation activity” value ([2]; 35.3° C., 10 min) was 65.2%. The “Relative DON transformation activity” value ([2]; 35.3° C., 20 min) was 98.6%, the “Relative DON transformation activity” value ([2]; 35.3° C., 35 min) was 75.2% and the “Relative DON transformation activity” value ([2]; 35.3° C., 50 min) was 80.2%. For the same molecule, the “Relative DON transformation activity” value ([2]; 35.3° C., 60 min) was 104.3%, the “Relative DON transformation activity” value ([2]; 37.9° C., 0 min (starting activity set to 100%)) was 100.00% and the “Relative DON transformation activity” value ([2]; 37.9° C., 5 min) was 94.01%. For the same molecule, the “Relative DON transformation activity” value ([2]; 37.9° C., 10 min) was 74.5%, the “Relative DON transformation activity” value ([2]; 37.9° C., 20 min) was 43.9% and the “Relative DON transformation activity” value ([2]; 37.9° C., 35 min) was 75.2%. For the same molecule, the “Relative DON transformation activity” value ([2]; 37.9° C., 50 min) was 80.9%, the “Relative DON transformation activity” value ([2]; 37.9° C., 60 min) was 78.6% and the “Relative DON transformation activity” value ([2]; 40.7° C., 0 min (starting activity set to 100%)) was 100.00%. The “Relative DON transformation activity” value ([2]; 40.7° C., 5 min) was 104.1%, the “Relative DON transformation activity” value ([2]; 40.7° C., 10 min) was 76.1% and the “Relative DON transformation activity” value ([2]; 40.7° C., 20 min) was 81.6%. The “Relative DON transformation activity” value ([2]; 40.7° C., 35 min) was 104.5%, the “Relative DON transformation activity” value ([2]; 40.7° C., 50 min) was 75.8% and the “Relative DON transformation activity” value ([2]; 40.7° C., 60 min) was 105.1%. For the same molecule, the “Relative DON transformation activity” value ([2]; 43.4° C., 0 min (starting activity set to 100%)) was 100.00%, the “Relative DON transformation activity” value ([2]; 43.4° C., 5 min) was 83.4% and the “Relative DON transformation activity” value ([2]; 43.4° C., 10 min) was 68.1%. The “Relative DON transformation activity” value ([2]; 43.4° C., 20 min) was 66.7%, the “Relative DON transformation activity” value ([2]; 43.4° C., 35 min) was 89.3% and the “Relative DON transformation activity” value ([2]; 43.4° C., 50 min) was 81.3%. For the same molecule, the “Relative DON transformation activity” value ([2]; 43.4° C., 60 min) was 91.8%, the “Relative DON transformation activity” value ([2]; 46.0° C., 0 min (starting activity set to 100%)) was 100.00% and the “Relative DON transformation activity” value ([2]; 46.0° C., 5 min) was 97.7%. For the same molecule, the “Relative DON transformation activity” value ([2]; 46.0° C., 10 min) was 62.6%, the “Relative DON transformation activity” value ([2]; 46.0° C., 20 min) was 62.5% and the “Relative DON transformation activity” value ([2]; 46.0° C., 35 min) was 58.4%. The “Relative DON transformation activity” value ([2]; 46.0° C., 50 min) was 23.3%, the “Relative DON transformation activity” value ([2]; 46.0° C., 60 min) was 50.4% and the “Relative DON transformation activity” value ([2]; 50.8° C., 0 min (starting activity set to 100%)) was 100.00%. For the same molecule, the “Relative DON transformation activity” value ([2]; 50.8° C., 5 min) was 77.4%, the “Relative DON transformation activity” value ([2]; 50.8° C., 10 min) was 72.7% and the “Relative DON transformation activity” value ([2]; 50.8° C., 20 min) was 19.5%. For the same molecule, the “Relative DON transformation activity” value ([2]; 50.8° C., 35 min) was 16.6%, the “Relative DON transformation activity” value ([2]; 50.8° C., 50 min) was 10.9% and the “Relative DON transformation activity” value ([2]; 50.8° C., 60 min) was 16.0%.
